The source of these data is patent publication US20030194403A1.

The assay addresses soluble epidermal growth factor receptor (EGFR), purified from A431 cells (Sigma E 3641) (human) (UniProt P00533). Put plainly: ELISA, inhibition of EGF-biotin binding to immobilized EGFR (FIG. 8). Background: An ELISA detects its analyte on a solid surface through an enzyme-linked reagent.

Substance “m225, a mouse IgG2a anti-EGFR antibody (hybridoma ATCC HB-8508)” had an IC50 of 30 nM.

Usually IC50 stands for the concentration that gives 50% inhibition.
